In FireProtDB (doi:10.1002/prot.340230110):

Conditions: Escherichia coli; pH 6; 25 °C; Thermal; DSC; Sodium phosphate/Sodium sulfate 10 mM/10 mM/; reversible: yes; whole UniProt chain shown

B1: Regulatory protein rop wild type, P03051 (protein)
chain: MTKQEKTALNMARFIRSQTLTLLEKLNELDADEQADICESLHDHADELYRSCLARFGDDGENL
What does the source list for B1?
heat capacity change of unfolding: 2.46 kcal/mol/K; unfolding free energy: 17.1 kcal/mol
